In experiment [1] the target is T1, pro-domain of activin A, N-terminal His6-tagged, released from engineered pro-activin A by HRV 3C protease (human).
T1 sequence (P08476 whole entry, looked up): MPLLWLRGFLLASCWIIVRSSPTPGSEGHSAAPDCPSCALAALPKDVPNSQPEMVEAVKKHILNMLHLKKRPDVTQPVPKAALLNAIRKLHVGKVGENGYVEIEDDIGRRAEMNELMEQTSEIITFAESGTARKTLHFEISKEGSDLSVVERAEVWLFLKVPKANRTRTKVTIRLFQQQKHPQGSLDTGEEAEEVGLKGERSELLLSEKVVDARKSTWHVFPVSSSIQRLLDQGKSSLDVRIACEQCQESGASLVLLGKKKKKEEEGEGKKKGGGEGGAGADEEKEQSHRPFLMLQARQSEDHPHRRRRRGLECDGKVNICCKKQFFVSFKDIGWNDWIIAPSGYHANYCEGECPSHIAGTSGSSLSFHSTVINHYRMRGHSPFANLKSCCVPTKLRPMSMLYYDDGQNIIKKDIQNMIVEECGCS
The experiment is described as follows: BLI; His6-tagged pro-activin A complex immobilised through the pro-domain on anti-penta-HIS biosensors, dipped into buffer containing 100 nM FST-288 for 600 s; dissociation of the mature domain; 30 °C.

Experiment [2] shares this target. In words: BLI; pro-activin A complex immobilised at 50 μg/ml on anti-penta-HIS biosensors, mature domain removed with 16 μM FST-288, then mature activin A in solution; 600 s association, 600 s dissociation; 30 °C. Background: In BLI a coated tip is dipped into the sample, and binding shifts an interference pattern.
The target is the same in experiment [3]. The experiment is described as follows: BLI; reverse phase purified His6-tagged pro-domain immobilised at 25 μg/ml on anti-penta-HIS biosensors; mature activin A in solution; 300 s association, 300 s dissociation; Octet RED96, 30 °C.
Experiment [4] shares this target. In words: BLI; His6-tagged pro-activin A complex immobilised through the pro-domain on anti-penta-HIS biosensors, dipped into blank buffer for 600 s; dissociation of the mature domain; 30 °C.

B1: mature activin A (disulfide-linked dimer of the mature domain of inhibin βA) (ligand)
chain: GLECDGKVNICCKKQFFVSFKDIGWNDWIIAPSGYHANYCEGECPSHIAGTSGSSLSFHSTVINHYRMRGHSPFANLKSCCVPTKLRPMSMLYYDDGQNIIKKDIQNMIVEECGCS
On to B1, for which, in experiment [1], the dissociation rate with 100 nM FST-288 turned out to be 0.00445 s⁻¹. Also, the Kd (as a rule, the concentration at which binding is half-saturated) was 2.3 nM in experiment [2] and 5 nM in experiment [3]. The koff (commonly a measure of how fast the partners let go of each other) in experiment [4] was 0.00299 s⁻¹.

The values are drawn from publication PMC4932183.
